Like-named read-outs stand apart in the source and are kept apart here.

In data set [1] the target is T1, His-nOsBZR4 (His-OsBZR4) (Oryza sativa (rice), UniProt Q6EUF1 1-108).
T1 sequence: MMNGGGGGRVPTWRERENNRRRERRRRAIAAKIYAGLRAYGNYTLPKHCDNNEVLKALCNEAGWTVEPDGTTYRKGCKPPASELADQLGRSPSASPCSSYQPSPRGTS
Nature of the data set: EMSA. Background: A gel shift assay detects complexes by their altered migration in electrophoresis.

Data set [2] has as its target T1, His-nOsBZR4 (His-OsBZR4). Nature of the data set: EMSA. The source holds these as a separate data set.

B1: YUC11-EMSA (dsDNA)
DNA 1: TTCCGTATAAATAGCATGTGCTCTCCGA
DNA 2: TCGGAGAGCACATGCTATTTATACGGAA
In the case of B1, the binding result with His-nOsBZR4 (His-OsBZR4) [1] is listed as “binds”.

B2: YUC4-EMSA (dsDNA)
DNA 1: CGACCGAGCATATGCTCCGTGTTGGTGTATATATACTCGT
DNA 2: ACGAGTATATATACACCAACACGGAGCATATGCTCGGTCG
Regarding B2, the binding result in the data set with His-nOsBZR4 (His-OsBZR4) [2] was “binds”.

The values are drawn from PMC12296736.
